Reference: the supplement of paper PMC10201428
± gives the standard deviation of the averaged measurements.

B1: library; a variant is named by its letters at N, in order (parent)
chain: AATGTTGTTGATGCAACCATAAAGTGATATTTAATAATTATTTATAATCAGCAACTTAACCACAAAACAACCATATATTGATATNTCACAAAACAACCATAANTTGATATTTTTGTGAATCGAGTATTTCAGCAAAACTACTGCAGTAAGAA

How the values were obtained:
[1] = variants of: B1; assay: relative integration efficiency (T-LR orientation) vs wild-type transposon end (log2 (normalized fold change)); transposon end mutated: left end; higher = more efficient transposition; settings: with VchCAST RNA-guided transposition machinery (E. coli BL21(DE3) host, lacZ target)
How it was run: (§1)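 In E. coli BL21(DE3), a T7-driven effector plasmid was paired with a pUC57 mini-transposon donor containing 1549 left-end or 1849 right-end barcoded transposon variants. Cells grew on plates with 0.1 mM IPTG at 37°C for 18 h. Relative integration efficiency was derived from Illumina reads of genomic integration junctions against input plasmids, as a log-transformed output/input barcode fold change normalised to reference barcodes.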

[2] = variants of: B1; assay: relative integration efficiency (T-RL orientation) vs wild-type transposon end (log2 (normalized fold change)); transposon end mutated: left end; higher = more efficient transposition; settings: with VchCAST RNA-guided transposition machinery (E. coli BL21(DE3) host, lacZ target)
How it was run: as §1

Row | Variant | relative integration efficiency (log2) [1] | relative integration efficiency (log2) [2]
1 | CG C49G A50T G51C C52G | -1.24 ± 0.76 | -1.58 ± 0.9
2 | CG A118C | 0.243 ± 0.42 | -0.0886 ± 0.026
3 | CG A118G | -0.0561 ± 0.73 | -0.144 ± 0.097
4 | CG A118T | -0.185 ± 0.24 | -0.0188 ± 0.11
5 | CG A92T A93T | -0.29 ± 0.86 | -0.445 ± 0.23
6 | CG C18G A19T | -1.25 ± 0.29 | -1.13 ± 0.5
7 | CG A118C A119C T120G C121A G122T A123C G124T T125G | -0.0272 ± 0.24 | 0.0769 ± 0.16
8 | CG C17A C71A C97A | -0.871 ± 0.35 | -1.21 ± 0.59
9 | CG A109C T110G | -1.25 ± 1.3 | -0.936 ± 0.53
10 | CG A118C A119C | 0.178 ± 0.4 | -0.00591 ± 0.078
11 | CG A107T T108A | -0.991 ± 0.38 | -0.981 ± 0.55
12 | CG C14A C68A C94A | -1.29 ± 1.1 | -0.864 ± 0.51
13 | CG C18A A19C | -1.46 ± 0.83 | -1.68 ± 0.79
14 | CG A93C C94A A95C A96C | -0.979 ± 1.9 | -1.09 ± 0.56
15 | CG C49A A50C | -0.934 ± 0.45 | -0.598 ± 0.47
16 | CG A109T T110A | -0.674 ± 0.43 | -0.271 ± 0.27
17 | CG C18T | 0.181 ± 0.51 | 0.16 ± 0.08
18 | CG C18G | 0.0813 ± 0.047 | 0.259 ± 0.083
19 | CG C18A | 0.107 ± 0.17 | -0.181 ± 0.016
20 | CG A96C C97A | -2 ± 1 | -1.33 ± 0.57
21 | CG A119T T120A | -0.0736 ± 0.29 | -0.226 ± 0.056
22 | CG C49A A50T C52T T56C T57A C60A C61G A62T C63A | -3.63 ± 0.43 | -5.28 ± 0.94
23 | CG A95T A96T | -0.891 ± 0.57 | -0.379 ± 0.28
24 | CG C49A A50C G51T C52A | -1.02 ± 1.1 | -0.71 ± 0.6

Row | Variant | relative integration efficiency (log2) [1] | relative integration efficiency (log2) [2]
25 | CG A96T C97G | -0.64 ± 0.43 | -0.723 ± 0.29
26 | CG A95T A96T C97G C98G | -1.79 ± 0.29 | -1.94 ± 0.81
27 | CG A101C A102C | -1.64 ± 0.96 | -1.55 ± 0.55
28 | CG A107C T108G A109C T110G | -2.3 ± 1.2 | -1.64 ± 0.79
29 | CG A101G | -1.62 ± 1.1 | -1.22 ± 0.47
30 | CG A101T | -0.501 ± 0.29 | -0.599 ± 0.23
31 | CG A101C | -1.67 ± 0.92 | -1.29 ± 0.49
32 | CG A93C C94A | -0.406 ± 0.83 | -0.522 ± 0.41
33 | CG A101T A102T | -0.713 ± 0.59 | -0.513 ± 0.27
34 | CG A93T C94G | -1.04 ± 0.89 | -1.35 ± 0.65
35 | CG C14G A15T | -1.58 ± 0.72 | -0.642 ± 0.37
36 | CG C49G | 0.811 ± 0.52 | 0.127 ± 0.33
37 | CG C49A | -0.195 ± 0.69 | 0.178 ± 0.24
38 | CG C14A A15C A16C C17A | -1.81 ± 1 | -1.38 ± 0.6
39 | CG A91G | 0.0207 ± 0.21 | -0.155 ± 0.14
40 | CG A91C | -0.299 ± 1.1 | -0.278 ± 0.17
41 | CG A91T | -0.0651 ± 0.68 | -0.101 ± 0.084
42 | CG A119C T120G | -0.429 ± 1.1 | -0.131 ± 0.072
43 | CG A99T T100A | -1.17 ± 0.8 | -1.19 ± 0.47
44 | CG C18A A19C T20G A21C | -2.8 ± 0.18 | -3.18 ± 0.65
45 | CG C18G C72G C98G | -0.915 ± 0.23 | -0.987 ± 0.56
46 | CG C14G C68G C94G | -2.2 ± 0.43 | -2.49 ± 1.3
47 | CG A119T | 0.893 ± 0.42 | 0.51 ± 0.29
48 | CG A119G | 0.273 ± 0.044 | 0.0234 ± 0.071

Row | Variant | relative integration efficiency (log2) [1] | relative integration efficiency (log2) [2]
49 | CG A119C | 0.11 ± 0.18 | -0.107 ± 0.1
50 | CG A109C T110G T111G T112G | -1.67 ± 0.36 | -1.4 ± 0.41
51 | CG C49G A50T | -0.94 ± 0.92 | -0.509 ± 0.62
52 | CG A107T T108A A109T T110A | -0.765 ± 0.3 | -0.783 ± 0.46
53 | CG A92C A93C | -0.222 ± 0.86 | -0.331 ± 0.24
54 | CG A109T T110A T111A T112A | -1.2 ± 0.55 | -1.22 ± 0.46
55 | CG A93T C94G A95T A96T | -2.14 ± 0.41 | -1.82 ± 0.58
56 | CG C17G C18G | -0.437 ± 0.49 | -0.313 ± 0.33
57 | CG C18A C72A C98A | -1.73 ± 0.24 | -1.91 ± 0.81
58 | CG A91T A92T A93T C94G | -1.3 ± 1.2 | -1.4 ± 0.69
59 | CG A91C A92C | 0.242 ± 0.39 | -0.116 ± 0.2
60 | CG A96T | -0.52 ± 0.14 | -0.314 ± 0.13
61 | CG A96G | -1.06 ± 0.18 | -0.704 ± 0.32
62 | CG A96C | 0.848 ± 0.0087 | 0.7239 ± 0.0024
63 | CG A95C A96C | -0.693 ± 0.86 | -0.385 ± 0.4
64 | CG A92T A93T C94G A95T | -3.64 ± 1.2 | -1.61 ± 0.83
65 | CG A99T T100A A101T A102T | -0.997 ± 0.78 | -1.06 ± 0.48
66 | CG A96C C97A C98A A99C | -1.79 ± 0.72 | -2.25 ± 0.85
67 | CG A95G | -1.23 ± 0.42 | -0.845 ± 0.39
68 | CG A95C | -0.179 ± 0.35 | -0.318 ± 0.063
69 | CG A95T | -0.598 ± 0.89 | -0.00814 ± 0.24
70 | CG A107C | -0.569 ± 1.1 | -0.425 ± 0.35
71 | CG A107G | -0.592 ± 0.8 | -0.554 ± 0.26
72 | CG A107T | -0.794 ± 0.79 | -0.795 ± 0.44

Row | Variant | relative integration efficiency (log2) [1] | relative integration efficiency (log2) [2]
73 | CG C17A C18A | -1.03 ± 1 | -1.15 ± 0.71
74 | CG A119C T120G C121A G122T A123C G124T T125G | -0.964 ± 0.063 | -0.304 ± 0.022
75 | CG A123C G124T T125G | -0.277 ± 0.038 | -0.171 ± 0.067
76 | CG C17G C71G C97G | -1.57 ± 1 | -1.28 ± 0.76
77 | CG C14A | -0.739 ± 0.55 | -0.546 ± 0.32
78 | CG C14G | -0.527 ± 0.35 | -0.0895 ± 0.33
79 | CG C14T | 0.167 ± 0.37 | -0.295 ± 0.18
80 | CG A90T | -0.375 ± 0.31 | -0.404 ± 0.16
81 | CG A90G | -0.331 ± 0.48 | -0.339 ± 0.053
82 | CG C17G C18G A19T T20A | -1.28 ± 0.64 | -1.56 ± 0.94
83 | CG A102T | 0.323 ± 0.19 | -0.123 ± 0.24
84 | CG A102C | -1.3 ± 0.53 | -1.12 ± 0.46
85 | CG A102G | -1.58 ± 1.1 | -0.825 ± 0.55
86 | CG A90T A91T | 0.245 ± 0.23 | -0.308 ± 0.26
87 | CG A90T A91T A92T A93T | -0.429 ± 0.24 | -0.557 ± 0.36
88 | CG A91C A92C A93C C94A | -0.269 ± 0.36 | -0.581 ± 0.55
89 | CG A118T A119T | 0.266 ± 0.26 | -0.158 ± 0.014
90 | CG C17T | -0.0678 ± 0.41 | -0.0235 ± 0.16
91 | CG C17G | 0.155 ± 0.37 | -0.344 ± 0.25
92 | CG C17A | 0.131 ± 0.49 | 0.0401 ± 0.23
93 | CG C18G A19T T20A A21T | -2.57 ± 1.4 | -1.37 ± 0.56
94 | CG A95C A96C C97A C98A | -1.32 ± 1.8 | -2.14 ± 0.8
95 | CG C14G A15T A16T C17G | -1.31 ± 0.38 | -1.26 ± 0.49
96 | CG A93G | -0.13 ± 0.37 | -0.207 ± 0.083

Row | Variant | relative integration efficiency (log2) [1] | relative integration efficiency (log2) [2]
97 | CG A93T | -0.975 ± 0.63 | -0.479 ± 0.33
98 | CG A93C | -0.0609 ± 0.5 | -0.288 ± 0.19
99 | CG A96T C97G C98G A99T | -2 ± 1.1 | -2.05 ± 0.9
100 | CG A92C A93C C94A A95C | -1.74 ± 0.33 | -1.09 ± 0.75
101 | CG C14A A15C | -0.0841 ± 0.4 | -0.0319 ± 0.34
102 | CG C17A C18A A19C T20G | -3.01 ± 0.42 | -2.69 ± 0.85
103 | CG A90C A91C A92C A93C | -0.132 ± 0.77 | -0.283 ± 0.31
104 | CG A92C | -0.321 ± 0.19 | -0.313 ± 0.19
105 | CG A92T | 0.606 ± 0.37 | -0.0452 ± 0.064
106 | CG A92G | -0.495 ± 0.53 | -0.563 ± 0.18
107 | CG A107C T108G | -0.997 ± 1.2 | -1.01 ± 0.6
108 | CG A91T A92T | 0.705 ± 0.2 | 0.108 ± 0.066
109 | CG A109C | 0.0163 ± 0.22 | -0.193 ± 0.42
110 | CG A109T | 0.223 ± 0.47 | 0.209 ± 0.39
111 | CG A109G | -0.737 ± 0.88 | -0.662 ± 0.16
112 | CG A99C T100G A101C A102C | -1.07 ± 1.4 | -1.82 ± 0.89
113 | CG A99G | -0.0966 ± 0.58 | -0.278 ± 0.18
114 | CG A99T | -1.41 ± 0.62 | -0.877 ± 0.54
115 | CG A99C | -1.01 ± 0.78 | -1.23 ± 0.65
116 | CG A99C T100G | -1.66 ± 1.1 | -1.87 ± 0.76
